This is an account of results in PMC2566588.

The target in the test is CXCR4CFP (human) (UniProt P61073). As to the kind of experiment: FRET or BRET; sensitized-emission FRET imaging as above; cells treated with chemokines (CCL3/MIP1α, CCL5/RANTES or CXCL12/SDF-1) for 20 min before imaging; N-FRET on the plasma membrane against the unstimulated control. Background: BRET reads energy transfer from a luciferase to a nearby fluorophore.
CXCR4CFP (human), sequence (P61073 whole entry): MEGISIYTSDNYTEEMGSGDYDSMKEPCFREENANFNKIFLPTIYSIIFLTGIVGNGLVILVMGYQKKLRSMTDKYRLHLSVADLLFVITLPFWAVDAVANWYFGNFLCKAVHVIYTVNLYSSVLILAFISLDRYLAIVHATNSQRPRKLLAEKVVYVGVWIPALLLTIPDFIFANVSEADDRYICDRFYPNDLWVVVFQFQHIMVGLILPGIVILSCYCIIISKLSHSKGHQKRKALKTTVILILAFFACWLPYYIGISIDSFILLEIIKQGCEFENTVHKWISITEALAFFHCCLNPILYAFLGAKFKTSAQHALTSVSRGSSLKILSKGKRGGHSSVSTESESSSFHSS

CCR5YFP, P51681 1-352 (receptor; other documents disagree on this pair), sequence (P51681 whole entry): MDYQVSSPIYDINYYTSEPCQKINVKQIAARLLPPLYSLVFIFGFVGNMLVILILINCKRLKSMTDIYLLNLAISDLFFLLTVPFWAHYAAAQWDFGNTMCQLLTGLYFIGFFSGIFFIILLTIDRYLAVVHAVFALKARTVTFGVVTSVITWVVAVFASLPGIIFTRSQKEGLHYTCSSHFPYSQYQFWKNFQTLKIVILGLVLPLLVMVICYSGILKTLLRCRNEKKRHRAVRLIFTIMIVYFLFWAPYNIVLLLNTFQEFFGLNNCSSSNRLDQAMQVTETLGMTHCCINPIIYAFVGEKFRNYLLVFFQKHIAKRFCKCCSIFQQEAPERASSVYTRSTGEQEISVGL

Consider “CCR5YFP, P51681 1-352 (receptor; other documents disagree on this pair)”, for which the increase of N-FRET with CCL3/MIP1α against the unstimulated control worked out at 30% and the increase of N-FRET with CCL5/RANTES against the unstimulated control turned out to be 30%.
